Laboratory results as given in publication PMC6394990, “Detailed characterization of the solution kinetics and thermodynamics of biotin, biocytin and HABA binding to avidin and streptavidin” (PLoS ONE, 2019).
Several values for one entry are separate records, joined by “and”; a condition that tells them apart may be missing. Equal values may be shown once. Read-outs that look alike come from different tables or passages of the source. Values belong to the compound of their own block, whether it stands above or below them.

Assays:
[1] = target: T1, avidin (AV) (Gallus gallus, UniProt P02701); settings: cited from earlier work; for Off rate constants, rate / Off rate constants, ln k: AV; for Off rate constants, rate: in s^-1 (unit assumed); for Off rate constants, ln k: the values are: ln koff
T1 construct: purchased Calbiochem (La Jolla, CA)

[2] = target: T1, avidin (AV); test: Stopped-flow association kinetics of dye-labeled biotin probes binding to avidin (F(t), rF(t); Arrhenius plots/global fitting); set-up: ln(k) / dS+ / dG+ / Eon for BFl / b of the line y = m1x+b1: unit not given here; settings: forward step from Initial 0, probe not given
Description: (§1) These reactions were carried out in a buffered solution of 10 mM Tris-HCl, 100 mM KCl, 2.5 mM MgCl2 and 1 mM CaCl2 at pH 8 and only AV-BcO reactions included pH 9 and 10. The concentrations, after mixing, were of 20 nM of dye-labeled B7 probe and 260 nM, 520 nM or 1040 nM of AV; and 200 nM, 300 nM, 400 nM or 800 nM of SAV at temperatures of 10, 15, 20 and 25°C. The deglycosylation of AV (for comparative association reactions) was carried out using the provided standard protocol with endoglycosidase H [47], both with and without incubation of a denaturant solution (2% SDS and 1M 2-mercaptoethanol).
The reactions were collected with the SF instrument, described previously. The fluorescence signal was collected through a 520 nm interference filter (Oriel Corp., Stratford, CT) with a detector time constant and SF dead time of 1 μs and 1 ms, respectively. The excitation light was provided by the Coherent Ar^+ ion laser (described above) at 488 nm with […] of incident power on the reaction cuvette. The laser source was followed by the photo-elastic modulator described above with the axis oriented 45^o with respect to the electric vector of the incident light and with the half-wave modulation (50 kHz) set for 488 nm excitation. The demodulation circuitry following the photomultiplier provided a DC(t) and a rectified AC(t) which were converted to digital data by a high-speed digitizer (PCI-5122) from National Instruments (Austin, TX) with 14-bit resolution and 100 MHz bandwidth, through channels 0 and 1. The data acquisition was controlled by LabVIEW (Vr 8) software at a collection rate of 6120 data points/second and stored in spreadsheets. The AC(t) and DC(t) data were baseline corrected before obtaining the signal ratio (Eq 4) as a function of time (ρt).
(§2) The constant AGain is the instrumental amplitude gain and was evaluated by solving ρ(t) using the known steady state anisotropy (rss) of the complexes which is equivalent to the r(t) at t = ∞; and H, obtained from the equivalent grating factor (G) for the filters and photo multiplier tubes in the SF. For the probes used in here G was 0.82 and H = (1-G)/(1+G) = 0.099. Knowing Again and H, the AC(t) and DC(t) signals can be solved for r(t) and F(t) (Eqs 4 and 5) and the normalized fluorescence, F¯(t) , and corrected fluorescence anisotropy, rF¯(t), were obtained when F¯(0) and rF¯(0) were scaled to 1 at t = 0.
(§3) The F¯(t) (Eq 6) is equivalent to (I||) + 2 (I⊥) and proportional to quantum yield (QYi), molar absorptivity (εi) and to the formation or disappearance of the emitting species Xi(t); and rF¯(t) including the steady state anisotropies (rss) of each fluorescent species (Eq 7).
(§4) The possible reaction models were discriminated by the squared residuals of the observed and calculated association traces of both fluorescence and anisotropy fluorescence signals, F¯(t) and rF¯(t) , respectively.

[3] = target: T1, avidin (AV); test: Literature kinetics, affinity and dissociation (backward) activation parameters; type: binding
[4] = target: T1, avidin (AV); test: Literature calorimetry reaction thermodynamics; type: binding; settings: line without author below the literature lines (average)
[5] = set-up: method as in PMID 10796986; settings: cited from earlier work
[6] = target: T1, avidin (AV); settings: cited from earlier work
[7] = target: T2, streptavidin (SAV) (Streptomyces avidinii, UniProt P22629); test: Stopped-flow association kinetics of dye-labeled biotin probes binding to streptavidin (F(t), rF(t); Arrhenius plots/global fitting); settings: forward step from Initial 0, probe not given
T2 construct: purchased Sigma Aldrich (St. Louis, MO)
Description: as §1, with “The concentrations, after mixing, were of 20 nM of dye-labeled B7 probe and 260 nM, 520 nM or 1040 nM of AV; and 200 nM, 300 nM, 400 nM or 800 nM of SAV at temperatures of 10, 15, 20 and 25°C.” left out
The reactions were collected with the SF instrument, described previously. […] The AC(t) and DC(t) data were baseline corrected before obtaining the signal ratio (Eq 4) as a function of time (ρt).
as §2, §3, §4

[8] = target: T2, streptavidin (SAV); test: Literature kinetics, affinity and dissociation (backward) activation parameters; type: binding
[9] = target: T2, streptavidin (SAV); test: Literature calorimetry reaction thermodynamics; type: binding
[10] = target: T2, streptavidin (SAV); settings: cited from earlier work; for Off rate constants, rate / Ea from off rate constants: SAV; for Off rate constants, rate: ligand not given, ref klumb paper; for ln(frac bound): rate off SAV
[11] = target: T2, streptavidin (SAV); settings: cited from earlier work
[12] = free biotin, 43 C, read from a literature plot
[13] = free biotin, 55 C, read from a literature plot
[14] = free biotin, 66 C, read from a literature plot
[15] = line without author below the literature lines
[16] = Enthalpy block, from literature off rates, ref not given
[17] = ligand not given (biotin binding), ref Helppolainen
[18] = Enthalpy block, literature value, ref not given
[19] = Gibbs block, literature value, ref not given
[20] = entropy block, literature value, ref not given
[21] = ligand not given (biotin binding), first Green line, ref Green
[22] = ligand not given (biotin binding), ref Suurkuusk
[23] = ligand not given (biotin binding), second Green line, ref Green
[24] = line without author below the literature lines (average)
[25] = ligand not given (biotin binding), ref Hyre
[26] = ligand not given (biotin binding), ref Klumb
[27] = ligand not given (biotin binding), ref Weber
[28] = ligand not given (biotin binding), ref Green

T1 sequence (P02701 25-152): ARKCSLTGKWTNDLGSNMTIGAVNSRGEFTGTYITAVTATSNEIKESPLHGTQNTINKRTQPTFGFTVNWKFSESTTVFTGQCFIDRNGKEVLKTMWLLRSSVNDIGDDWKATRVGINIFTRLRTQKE

Compound: O=C(O)CCCC[C@@H]1SC[C@@H]2NC(=O)N[C@@H]21 [free biotin]
Off rate constants, rate [1, 12]: 5.623e-6
Off rate constants, ln k [1, 12]: -12.1
Off rate constants, rate [1, 13]: 6.31e-5
Off rate constants, ln k [1, 13]: -9.67
Off rate constants, rate [1, 14]: 0.0005623
Off rate constants, ln k [1, 14]: -7.48

dG+ ([2]; Gibbs block): 4.7
dS+ ([2]; entropy block): 32.8
dSǂ from off rate constants, from transition state teory ([3]; AV): 31.8 cal/(mol·K)
TdS* ([3]; AV, at 25C): 1.28E+04
dG* ([3]; AV, at 25C, from off rates of rhiziavidin-helponainen-2007): 2.47E+04
dS (intercept less ln[RT/Noh), times 1.987) ([3]; AV, from off rate constants): 43 cal/(mol·K)
slope intersept, ln A ([3]; AV, from off rate constants of rhiziavidin-helponainen-2007): 45.4
sum (Enthalpy: Eon for BFl and dH) ([3]; Enthalpy block): 37.6
sum (Gibbs: dG+ and dG) ([3]; Gibbs block): 25.4
sum (entropy: dS+ and dS) ([3]; entropy block): 41.7
Ea from off rate constants ([3]; for AV, from off rates of rhiziavidin-helponainen-2007): 37.5 kcal/mol
Eaoff [3, 15]: 35.6
dH + Ea [3, 15]: 36.5
dH [4]: -21.9 kcal/mol
Compound: AV: avidin, homo-tetrameric biotin-binding protein, CAS 1405-69-2
thermal stability with bound B7 [5]: 117 °C and 112 °C
thermal stability without bound B7 [5]: 84 °C
Off rate constants, ln k ([1]; 43 C, ligand not given, ref rhiziavidin paper): -14.3
Off rate constants, ln k ([1]; 55 C, ligand not given, ref rhiziavidin paper): -12.2
Off rate constants, ln k ([1]; 66 C, ligand not given, ref rhiziavidin paper): -10
Off rate constants, ln k ([1]; 68 C, ligand not given, ref rhiziavidin paper): -10.1
Eoff (ave) [1, 16]: 37.6
Eaoff [1, 17]: 35.6
dH [6, 18]: -23.2
dG [6, 19]: -20.7
dS [6, 20]: -8.9
TdS [6, 21]: 0 kcal/mol
dG [6, 21]: -20.5 kcal/mol
dS [6, 21]: 0
TdS [6, 22]: -8.9 kcal/mol
dCp [6, 22]: -237
dH [6, 22]: -22.5 kcal/mol
dH ([6]; ligand not given (biotin binding), ref swamy): -23.4 kcal/mol
TdS [6, 23]: -2.65 kcal/mol
dG [6, 23]: -20.75 kcal/mol
dH [6, 23]: -20.3 kcal/mol
dS [6, 23]: -8.9

Compound: SAV: streptavidin, homo-tetrameric biotin-binding protein, CAS 9013-20-1
dG+ ([7]; Gibbs block): 4
dS+ ([7]; entropy block): 6.7
sum (Enthalpy: Eon for BFl and dH) ([8]; Enthalpy block): 30.8
sum (Gibbs: dG+ and dG) ([8]; Gibbs block): 22.2
dSǂ from off rate constants, from transition state teory ([8]; SAV): 18.8
TdS* ([8]; SAV, at 25C): 8.94E+03
dG* ([8]; SAV, at 25C, line names rhiziavidin-helponainen-2007): 2.14E+04
slope intersept, ln A ([8]; SAV, from literature off rate constants): 38.85
dS (intercept less ln[RT/Noh), times 1.987) ([8]; SAV, from off rate constants): 30.0
sum (entropy: dS+ and dS) ([8]; entropy block): 27.7
dH + Ea [8, 15]: 31.8
dS* [8, 15]: 0.0195 kcal/mol
Eaoff [8, 24]: 29.6
TdS [9, 15]: -46.0
dH [9, 24]: -24.8 kcal/mol
thermal stability with bound B7 [5]: 112 °C and 117 °C
thermal stability without bound B7 [5]: 75 °C
Eoff (ave) [10, 16]: 29.4
Off rate constants, rate ([10]; 20 C): 1.862e-6
Off rate constants, rate ([10]; 30 C): 9.12e-6
Off rate constants, rate ([10]; 39 C): 4.467e-5
Ea from off rate constants ([10]; ref hyre): 30.4 kcal/mol and 30.4 ± 0.2hyre kcal/mol
Ea from off rate constants ([10]; ref klumb): 29.4 kcal/mol and 29.4 ± 0.4klumb kcal/mol
Ea from off rate constants ([10]; ref rhiziavidin-helponainen-2007): 29.0 ± 1.0 kcal/mol
Eaoff [10, 17]: 29
TdS* [10, 17]: 7.6 kcal/mol
dH* [10, 17]: 32 kcal/mol
dS* [10, 17]: 0.0257 kcal/mol
Eaoff [10, 25]: 29.4
TdS* [10, 25]: 5.6 kcal/mol
dH* [10, 25]: 30.4 kcal/mol
dS* [10, 25]: 0.0058 kcal/mol
Eaoff [10, 26]: 30.4
dG* [10, 26]: 24.6
dH* [10, 27]: 40 kcal/mol
ln(frac bound) ([10]; time 13 hr, ref klumb): -0.19
ln(frac bound) ([10]; time 22 hr, ref klumb): -0.36
ln(frac bound) ([10]; time 36 hr, ref klumb): -0.47
ln(frac bound) ([10]; time 47 hr, ref klumb): -0.62
ln(frac bound) ([10]; time 63 hr, ref klumb): -0.78
dH [11, 18]: -24.8
dG [11, 19]: -18.2
dS [11, 20]: -21
TdS [11, 28]: -6.4
dG [11, 28]: -18.1 kcal/mol
dH [11, 17]: -26.7 kcal/mol
TdS [11, 25]: -13.7
dCp [11, 25]: -345
dG [11, 25]: -18.3 kcal/mol
dH [11, 25]: -24.5 kcal/mol
dS [11, 25]: -45.9
dH [11, 26]: -24.9 kcal/mol
TdS ([11]; ligand not given (biotin binding), ref Stayton): -21.5
dH [11, 27]: -32 kcal/mol
dH ([11]; ligand not printed in the sheet (biotin binding), ref Green): -23 kcal/mol
